In series [1] the target is T1, PARP-1 (Homo sapiens, UniProt P09874 1-1014). The experiment in a line: fluorescence anisotropy; 140 mM KCl, 8 mM MgCl2; 25 mM HEPES pH 8.0, 140 mM KCl, 8 mM MgCl2, 50 ug/ml BSA, 0.02 mM TCEP, 4% glycerol, 11.4 mM bME, 5 nM labeled DNA, 30 min room temperature, read at 25 C. As to conditions: protein: recombinant, tags: His-tag (pET28a).
Series [2] addresses T1, PARP-1. The series can be described thus: fluorescence anisotropy; 140 mM KCl, 8 mM MgCl2; tighter than c-KIT, Kd in figure only; 25 mM HEPES pH 8.0, 140 mM KCl, 8 mM MgCl2, 50 ug/ml BSA, 0.02 mM TCEP, 4% glycerol, 11.4 mM bME, 5 nM labeled DNA, 30 min room temperature, read at 25 C. As to conditions: protein: recombinant; tags: His-tag (pET28a); parallel G4.
For series [3], the target named is T1, PARP-1. The series can be described thus: fluorescence anisotropy; 140 mM KCl, 8 mM MgCl2; ~14-fold tighter than c-KIT, similar to 18-bp dsDNA; 25 mM HEPES pH 8.0, 140 mM KCl, 8 mM MgCl2, 50 ug/ml BSA, 0.02 mM TCEP, 4% glycerol, 11.4 mM bME, 5 nM labeled DNA, 30 min room temperature, read at 25 C. Particulars: protein: recombinant; tags: His-tag (pET28a); parallel G4.

T1 sequence (P09874 whole entry): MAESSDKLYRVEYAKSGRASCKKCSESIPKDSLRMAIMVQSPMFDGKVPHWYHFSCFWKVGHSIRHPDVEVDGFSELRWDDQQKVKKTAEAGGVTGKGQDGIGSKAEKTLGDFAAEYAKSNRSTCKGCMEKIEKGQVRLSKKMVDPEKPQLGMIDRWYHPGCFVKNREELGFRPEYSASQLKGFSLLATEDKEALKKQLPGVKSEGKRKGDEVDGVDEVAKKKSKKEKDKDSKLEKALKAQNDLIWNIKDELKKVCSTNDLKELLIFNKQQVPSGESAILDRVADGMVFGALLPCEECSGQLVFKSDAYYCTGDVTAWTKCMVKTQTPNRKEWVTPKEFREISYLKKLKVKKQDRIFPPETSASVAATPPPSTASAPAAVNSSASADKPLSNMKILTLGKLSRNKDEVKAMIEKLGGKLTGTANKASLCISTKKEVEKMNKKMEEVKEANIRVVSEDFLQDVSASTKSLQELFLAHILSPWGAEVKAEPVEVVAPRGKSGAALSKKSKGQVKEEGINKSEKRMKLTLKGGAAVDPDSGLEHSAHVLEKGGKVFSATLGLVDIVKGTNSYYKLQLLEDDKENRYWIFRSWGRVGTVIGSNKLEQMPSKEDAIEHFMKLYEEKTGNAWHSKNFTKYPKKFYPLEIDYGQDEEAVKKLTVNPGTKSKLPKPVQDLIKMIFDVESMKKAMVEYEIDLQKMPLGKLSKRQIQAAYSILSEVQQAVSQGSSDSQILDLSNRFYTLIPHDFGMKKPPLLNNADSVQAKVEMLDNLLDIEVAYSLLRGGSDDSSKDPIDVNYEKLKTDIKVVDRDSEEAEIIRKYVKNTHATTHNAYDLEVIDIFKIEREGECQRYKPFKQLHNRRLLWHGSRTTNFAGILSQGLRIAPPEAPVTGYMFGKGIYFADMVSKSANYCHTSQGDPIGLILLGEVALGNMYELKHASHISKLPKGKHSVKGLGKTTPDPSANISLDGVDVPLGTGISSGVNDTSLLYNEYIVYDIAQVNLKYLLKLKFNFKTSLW

B1: c-KIT G4DNA (structured_DNA)
DNA: CCCGGGCGGGCGCGAGGGAGGGGAGG
On to B1, for which, in the series with PARP-1 [1] (parallel G4, stem-loop also possible), the Kd is 430 ± 60 nM.

B2: c-KIT L2 (structured_DNA)
DNA: CCCGGGCGGGCGGGAGGGGAGG
For B2, the binding result with PARP-1 [2] is “binds”.

B3: c-KIT 5' (structured_DNA)
DNA: CGGGCGGGCGCGAGGGAGGGGAGG
Take B3: the Kd with PARP-1 [1] (parallel G4) was 230 ± 9 nM.

B4: c-KIT 5':L2 (structured_DNA)
DNA: GGGCGGGCGGGAGGGGAGG
Regarding B4, in the series with PARP-1 [3], the Kd was ~30 nM.

B5: c-MYC G4DNA (Pu18 T14T23) (structured_DNA)
DNA: TGGGTGGGTAGGGTGGGT
For B5, the dissociation constant (Kd) with PARP-1 [1] (parallel G4) was 400 ± 50 nM.

B6: 18-bp dsDNA (dsDNA)
DNA 1: GGGTTGCGGCCGCTTGGG
DNA 2: CCCAAGCGGCCGCAACCC
With B6, the equilibrium dissociation constant (Kd) in the series with PARP-1 [1] (blunt) was 30 ± 10 nM.

The values above are taken from paper PMC7797039, “G-Quadruplex loops regulate PARP-1 enzymatic activation”.
